Laboratory results taken from publication PMC10349104, “Engineering broad-spectrum inhibitors of inflammatory chemokines from subclass A3 tick evasins” (Nature Communications, 2023).
Several values for one entry are separate records, joined by “and”; a condition that tells them apart may be missing. Equal values may be shown once.

T1: EVA-AAM1001, C-terminally Avi-tagged and biotinylated (A. americanum, biotin on the AVI tag)
T1 chain: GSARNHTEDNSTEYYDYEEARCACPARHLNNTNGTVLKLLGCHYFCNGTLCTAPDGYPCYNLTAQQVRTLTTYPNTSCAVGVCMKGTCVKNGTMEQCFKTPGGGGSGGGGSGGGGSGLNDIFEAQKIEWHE

T2: EVA-4 (UniProt P0C8E9 24-127)
T2 sequence (looked up): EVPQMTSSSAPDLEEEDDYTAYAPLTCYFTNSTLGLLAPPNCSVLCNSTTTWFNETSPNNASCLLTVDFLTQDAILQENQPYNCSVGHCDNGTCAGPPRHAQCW

B1: CCL11(F11A) (ligand)
chain: not shown
notes: also called CC + 1 residue-mutated CCL11; source: E. coli Rosetta-gami 2 (DE3), purified (His-Trap, SEC, RP-HPLC)
B2: CCL7(Y13A) (ligand)
chain: not shown
notes: source: E. coli Rosetta-gami 2 (DE3), purified (His-Trap, SEC, RP-HPLC)
B3: CCL17 (ligand, human, UniProt Q92583 24-94, looked up)
chain: ARGTNVGRECCLEYFKGAIPLRKLKTWYQTSEDCSRDAIVFVTVQGRAICSDPNNKRVKNAVKYLQSLERS
notes: as for B2
B4: CCL7 (ligand)
chain: not shown
notes: as for B2
B5: CCL11 (ligand)
chain: not shown
notes: as for B2
B6: CCL22 (ligand, human, UniProt O00626 25-93, looked up)
chain: GPYGANMEDSVCCRDYVRYRLPLRVVKHFYWTSDSCPRPGVVLLTFRDKEICADPRVPWVKMILNKLSQ
B7: CCL8 (ligand, human, UniProt P80075 24-99, looked up)
chain: QPDSVSIPITCCFNVINRKIPIQRLESYTRITNIQCPKEAVIFKTKRGKEVCADPKERWVRDSMKHLDQIFQNLKP
B8: CCL24 (ligand, human, UniProt O00175 27-119, looked up)
chain: VVIPSPCCMFFVSKRIPENRVVSYQLSSRSTCLKAGVIFTTKKGQQFCGDPKQEWVQRYMKNLDAKQKKASPRARAVAVKGPVQRYPGNQTTC
B9: CCL5 (ligand, human, UniProt P13501 24-91, looked up)
chain: SPYSSDTTPCCFAYIARPLPRAHIKEYFYTSGKCSNPAVVFVTRKNRQVCANPEKKWVREYINSLEMS
B10: CCL26 (ligand, human, UniProt Q9Y258 24-94, looked up)
chain: TRGSDISKTCCFQYSHKPLPWTWVRSYEFTSNSCSQRAVIFTTKRGKKVCTHPRKKWVQKYISLLKTPKQL
B11: CCL1 (ligand, human, UniProt P22362 24-96, looked up)
chain: KSMQVPFSRCCFSFAEQEIPLRAILCYRNTSSICSNEGLIFKLKRGKEACALDTVGWVQRHRKMLRHCPSKRK
B12: CCL3 (ligand, human, UniProt P10147 24-92, looked up)
chain: SLAADTPTACCFSYTSRQIPQNFIADYFETSSQCSKPGVIFLTKRSRQVCADPSEEWVQKYVSDLELSA
B13: CCL18 (ligand, human, UniProt P55774 21-89, looked up)
chain: AQVGTNKELCCLVYTSWQIPQKFIVDYSETSPQCPKPGVILLTKRGRQICADPNKKWVQKYISDLKLNA

Target: T1, EVA-AAM1001, C-terminally Avi-tagged …
Assay: SPR
Details: both partners purified

| Binder | fold increase in affinity over wild type CCL11 | fold increase in affinity over wild type CCL7 |
| --- | --- | --- |
| B1 | ~200 fold | – |
| B2 | – | ~10000 fold |

Target: T2, EVA-4
Assay: not stated; Kd of EVA-4 for human chemokines, three readings (source data of Supplementary Fig. 7); method and conditions not told for EVA-4
Details: not given

| Binder | Kd |
| --- | --- |
| B3 | 282 nM and 283 nM and 285 nM |
| B4 | 0.651 nM and 0.847 nM and 0.833 nM |
| B5 | 14.1 nM and 23.5 nM and 22.7 nM |
| B6 | 8.49 nM and 8.53 nM and 8.35 nM |
| B7 | 0.259 nM and 0.49 nM and 0.489 nM |
| B8 | 53.8 nM and 54.2 nM and 56.7 nM |
| B9 | 6.07 nM and 5.93 nM and 6.16 nM |
| B10 | 56.5 nM and 69.6 nM and 86.6 nM |
| B11 | 449 nM and 342 nM and 338 nM |
| B12 | 0.175 nM and 0.285 nM and 0.27 nM |
| B13 | 0.346 nM and 0.451 nM and 0.45 nM |
